Measurements: PMC3010429

Molecular target: hMutSα (hMSH2-hMSH6) WT recombinant (Homo sapiens, UniProt P43246;P52701 1-934;1-1360)
Test: EMSA, supershift

Sequence of hMutSα (hMSH2-hMSH6) WT recombinant (P43246 whole entry, chain 1 of 2): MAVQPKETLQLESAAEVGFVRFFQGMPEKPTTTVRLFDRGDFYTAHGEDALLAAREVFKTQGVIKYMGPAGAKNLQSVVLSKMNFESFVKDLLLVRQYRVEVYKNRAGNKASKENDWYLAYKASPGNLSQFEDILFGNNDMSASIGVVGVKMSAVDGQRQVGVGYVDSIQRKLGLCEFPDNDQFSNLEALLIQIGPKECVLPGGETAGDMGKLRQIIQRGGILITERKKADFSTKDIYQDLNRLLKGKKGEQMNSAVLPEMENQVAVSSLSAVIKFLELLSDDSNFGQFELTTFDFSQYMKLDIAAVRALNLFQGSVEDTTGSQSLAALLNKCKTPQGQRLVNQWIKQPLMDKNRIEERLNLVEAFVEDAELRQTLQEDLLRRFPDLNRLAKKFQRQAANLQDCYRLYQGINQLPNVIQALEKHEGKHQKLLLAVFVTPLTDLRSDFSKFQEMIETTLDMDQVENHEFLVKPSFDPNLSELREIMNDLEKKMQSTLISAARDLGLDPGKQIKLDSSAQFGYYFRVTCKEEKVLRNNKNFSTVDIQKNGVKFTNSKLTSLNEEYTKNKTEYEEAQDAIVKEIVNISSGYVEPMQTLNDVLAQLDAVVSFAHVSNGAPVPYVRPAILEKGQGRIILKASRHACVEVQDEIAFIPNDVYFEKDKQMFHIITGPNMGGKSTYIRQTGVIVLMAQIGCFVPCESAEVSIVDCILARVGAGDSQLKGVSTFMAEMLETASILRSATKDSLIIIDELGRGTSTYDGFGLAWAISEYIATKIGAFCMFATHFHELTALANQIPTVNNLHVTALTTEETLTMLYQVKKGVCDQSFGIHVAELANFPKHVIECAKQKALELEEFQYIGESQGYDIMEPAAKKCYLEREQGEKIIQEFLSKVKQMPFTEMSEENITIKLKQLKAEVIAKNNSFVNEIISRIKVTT
Sequence of hMutSα (hMSH2-hMSH6) WT recombinant (P52701 whole entry, chain 2 of 2): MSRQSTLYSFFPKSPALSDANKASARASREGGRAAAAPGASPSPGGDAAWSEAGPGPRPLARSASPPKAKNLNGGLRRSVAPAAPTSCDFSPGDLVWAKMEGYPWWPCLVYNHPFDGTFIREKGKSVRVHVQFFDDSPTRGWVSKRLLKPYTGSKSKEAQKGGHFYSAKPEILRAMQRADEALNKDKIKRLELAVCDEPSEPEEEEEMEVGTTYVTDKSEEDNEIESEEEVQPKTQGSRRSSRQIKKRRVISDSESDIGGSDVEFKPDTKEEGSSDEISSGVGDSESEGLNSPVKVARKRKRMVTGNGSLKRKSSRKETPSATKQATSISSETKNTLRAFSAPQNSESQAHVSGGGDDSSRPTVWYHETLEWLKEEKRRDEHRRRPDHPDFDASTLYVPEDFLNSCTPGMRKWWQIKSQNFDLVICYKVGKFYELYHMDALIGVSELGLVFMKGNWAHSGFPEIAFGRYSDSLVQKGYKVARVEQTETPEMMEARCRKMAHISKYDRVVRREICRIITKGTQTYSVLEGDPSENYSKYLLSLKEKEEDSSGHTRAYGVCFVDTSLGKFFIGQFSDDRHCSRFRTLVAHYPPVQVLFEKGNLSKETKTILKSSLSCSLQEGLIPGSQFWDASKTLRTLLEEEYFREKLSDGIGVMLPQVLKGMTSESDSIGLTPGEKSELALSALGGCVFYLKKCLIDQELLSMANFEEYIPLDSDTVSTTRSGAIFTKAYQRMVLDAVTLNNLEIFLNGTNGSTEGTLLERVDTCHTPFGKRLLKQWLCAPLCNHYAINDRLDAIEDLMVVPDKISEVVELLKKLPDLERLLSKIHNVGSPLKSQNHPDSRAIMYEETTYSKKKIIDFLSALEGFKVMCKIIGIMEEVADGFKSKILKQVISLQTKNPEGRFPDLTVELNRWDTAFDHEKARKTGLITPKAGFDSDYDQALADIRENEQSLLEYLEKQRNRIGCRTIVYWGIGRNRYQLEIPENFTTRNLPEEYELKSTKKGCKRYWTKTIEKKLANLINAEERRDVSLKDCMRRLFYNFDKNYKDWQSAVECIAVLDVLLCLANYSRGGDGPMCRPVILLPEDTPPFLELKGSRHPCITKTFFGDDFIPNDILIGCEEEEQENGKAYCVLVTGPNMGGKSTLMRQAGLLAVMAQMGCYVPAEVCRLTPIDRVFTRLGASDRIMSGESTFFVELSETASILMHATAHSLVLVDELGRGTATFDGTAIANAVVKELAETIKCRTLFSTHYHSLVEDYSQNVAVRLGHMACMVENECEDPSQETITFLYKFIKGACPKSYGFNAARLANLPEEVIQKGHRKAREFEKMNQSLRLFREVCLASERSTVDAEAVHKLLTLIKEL

B1: G:T 69mer (dsDNA)
DNA 1: AATTCACGGAATATAAGCTGGTGGTGGTGGGCGCCGGCGGTTGGGCAAGAGTGCGCTGACCATCCAGG
DNA 2: CCTGGATGGTCAGCGCACTCTTGCCCAACCGTCGGCGCCCACCACCACCAGCTTATATTCCGTGAATT
Does B1 bind?
Result: binds
